The text below walks through data of US20220177596A1 (Bristol-Myers Squibb, published 2022).

B1: humanized Y1238 hz44 (hz-HC9 / hz-LC4), IgG1.3f (antibody, V domains shown)
VH: QVQLVQSGAEVVKPGASVKVSCKASGYAFTNYLIEWVRQRPGQGLEWMGVINPGSGGTNYNEKFKGRVTLTADKSSSTAYMQLSRLRSDDTAVYFCARSQLGRRFDYWGQGTTVTVSS
VL: DIQMTQSPSSLSASVGDRVTITCKASQDVRTGVAWYQQKPGQSPKLLIYSASYRNTGVPSRFSGSRSGTDFTFTISSLQAEDIAVYYCQQHYSPPYTFGGGTKVEIK
notes: IgG1.3f heavy constant, common CL; expression supernatant; also called Sup 44
B2: humanized Y1238 hz45 (hz-HC9 / hz-LC5), IgG1.3f (antibody, V domains shown)
VH: QVQLVQSGAEVVKPGASVKVSCKASGYAFTNYLIEWVRQRPGQGLEWMGVINPGSGGTNYNEKFKGRVTLTADKSSSTAYMQLSRLRSDDTAVYFCARSQLGRRFDYWGQGTTVTVSS
VL: DIQMTQSPSSLSASVGDRVTITCKASQDVRTGVAWYQQKPGQAPKLLIYSASYRNTGVPSRFSGSRSGTDFTFTISSLQPEDIAVYYCQQHYSPPYTFGGGTKVEIK
notes: IgG1.3f heavy constant, common CL; expression supernatant; also called Sup 45
B3: humanized Y1238 hz47 (hz-HC10 / hz-LC2), IgG1.3f (antibody, V domains shown)
VH: QVQLVQSGAEVKKPGASVKVSCKASGYAFTNYLIEWVRQRPGQGLEWMGVINPGSGGTNYNEKFKGRVTMTRDKSISTAYMELSRLRSDDTAVYYCARSQLGRRFDYWGQGTLVTVSS
VL: DIQMTQSPSSLSASVGDRVTITCKASQDVRTGVAWYQQKPGKAPKLLIYSASYRNTGVPSRFSGSRSGTDFTFTISSLQPEDIATYYCQQHYSPPYTFGGGTKVEIK
notes: IgG1.3f heavy constant, common CL; expression supernatant; also called Sup 47
B4: humanized Y1238 hz50 (hz-HC10 / hz-LC5), IgG1.3f (antibody, V domains shown)
VH: QVQLVQSGAEVKKPGASVKVSCKASGYAFTNYLIEWVRQRPGQGLEWMGVINPGSGGTNYNEKFKGRVTMTRDKSISTAYMELSRLRSDDTAVYYCARSQLGRRFDYWGQGTLVTVSS
VL: DIQMTQSPSSLSASVGDRVTITCKASQDVRTGVAWYQQKPGQAPKLLIYSASYRNTGVPSRFSGSRSGTDFTFTISSLQPEDIAVYYCQQHYSPPYTFGGGTKVEIK
notes: IgG1.3f heavy constant, common CL; expression supernatant; also called Sup 50
B5: humanized Y1238 hz49 (hz-HC10 / hz-LC4), IgG1.3f (antibody, V domains shown)
VH: QVQLVQSGAEVKKPGASVKVSCKASGYAFTNYLIEWVRQRPGQGLEWMGVINPGSGGTNYNEKFKGRVTMTRDKSISTAYMELSRLRSDDTAVYYCARSQLGRRFDYWGQGTLVTVSS
VL: DIQMTQSPSSLSASVGDRVTITCKASQDVRTGVAWYQQKPGQSPKLLIYSASYRNTGVPSRFSGSRSGTDFTFTISSLQAEDIAVYYCQQHYSPPYTFGGGTKVEIK
notes: IgG1.3f heavy constant, common CL; expression supernatant; also called Sup 49
B6: humanized Y1238 hz48 (hz-HC10 / hz-LC3), IgG1.3f (antibody, V domains shown)
VH: QVQLVQSGAEVKKPGASVKVSCKASGYAFTNYLIEWVRQRPGQGLEWMGVINPGSGGTNYNEKFKGRVTMTRDKSISTAYMELSRLRSDDTAVYYCARSQLGRRFDYWGQGTLVTVSS
VL: DIQMTQSPSSLSASVGDRVTITCKASQDVRTGVAWYQQKPGQSPKLLIYSASYRNTGVPSRFSGSRSGTDFTFTISSLQPEDIAVYYCQQHYSPPYTFGGGTKVEIK
notes: IgG1.3f heavy constant, common CL; expression supernatant; also called Sup 48
B7: humanized Y1238 hz46 (hz-HC10 / hz-LC1), IgG1.3f (antibody, V domains shown)
VH: QVQLVQSGAEVKKPGASVKVSCKASGYAFTNYLIEWVRQRPGQGLEWMGVINPGSGGTNYNEKFKGRVTMTRDKSISTAYMELSRLRSDDTAVYYCARSQLGRRFDYWGQGTLVTVSS
VL: DIQMTQSPSSLSASVGDRVTITCKASQDVRTGVAWYQQKPGKAPKLLIYSASYRNTGVPSRFSGSGSGTDFTFTISSLQPEDIATYYCQQHYSPPYTFGGGTKVEIK
notes: IgG1.3f heavy constant, common CL; expression supernatant; also called Sup 46

The target of this experiment is T1, human-CD40 monomer (human, UniProt P25942 21-193, limits assumed).
T1 construct: also called hCD40-monomer; human-CD40-monomer protein
T1 sequence (P25942 21-193 limits assumed): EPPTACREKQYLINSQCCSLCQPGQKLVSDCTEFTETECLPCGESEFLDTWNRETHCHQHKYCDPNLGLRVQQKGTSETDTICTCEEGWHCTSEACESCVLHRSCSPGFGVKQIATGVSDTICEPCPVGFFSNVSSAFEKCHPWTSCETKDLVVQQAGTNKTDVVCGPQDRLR
Put plainly: SPR 2 pt screen, Ab on protein A. Here is the method:
The VH sequences were formatted in the context of an IgG1.3f isotype. The Vκ sequences were formatted as a full light chain with a common CL sequence. All 55 combinations of these humanized HC and LC constructs, as well as the chimeric Y1238 molecule were expressed as 3 ml supernatants for binding analysis by SPR. Each of the 56 supernatants, as well as a purified Y1238-chimeric IgG1 antibody, was captured on a protein A sensor chip and tested for binding to two concentrations (i.e., 200 nM and 1000 nM) of hCD40-monomer using BIAcore™ SPR in a screening assay. All antibodies, except for those containing hz-HC3, captured at high levels (>300 RU) using a 100-fold dilution of the expression supernatant, indicating a high antibody titer in the supernatant except for the hz-HC3 samples. The kinetic data for the two concentrations of hCD40-monomer were fit to a 1:1 Langmuir model, to yield estimates of the kinetic and affinity values for these interactions, and for comparison of the different molecules. […] Also, for a given heavy chain, the antibodies with light chains hz-LC1 or hz-LC2 had higher CD40 affinity than those with hz-LC3, hz-LC4 or hz-LC5.
As usually defined, the Kd is the concentration at which binding is half-saturated. A word on the koff: it is a measure of how fast the partners let go of each other. For orientation: kon means the second-order rate constant of association. In the case of B1, the Kd is 8.5 nM, the koff was determined as 0.00033 s⁻¹ and the kon was 39000 M⁻¹ s⁻¹.
Consider B2, for which the Kd came to 9.6 nM, the koff amounted to 0.00038 s⁻¹ and the kon amounted to 39000 M⁻¹ s⁻¹.
Consider B3, for which the Kd was found to be 8.8 nM, the koff was 0.00032 s⁻¹ and the kon came out at 36000 M⁻¹ s⁻¹.
On the same counts, the results for B4 are 16 nM, 0.00061 s⁻¹ and 39000 M⁻¹ s⁻¹.
On the same counts, the results for B5 are 12 nM, 0.00048 s⁻¹ and 39000 M⁻¹ s⁻¹.
Regarding B6, the Kd worked out at 14 nM, the koff was 0.00055 s⁻¹ and the kon was found to be 39000 M⁻¹ s⁻¹.
In the case of B7, the Kd is 5.1 nM, the koff turned out to be 0.0002 s⁻¹ and the kon is 39000 M⁻¹ s⁻¹.
